Source: publication PMC8554075 (Immunity, 2021)
Substitutions are numbered along the chain they refer to.

B1: AB-2445, expressed as human IgG1 (antibody, V domains shown)
VH: QVQLVESGGGVVQPGRSLRLSCAASGFTFSSYGMHWVRQAPGKGLEWVAVIWYDGSNKYYADSVKGRFTISRDNSKNTLYLQMNSLRAEDTAVYYCARDDYYGSGSYDYYGMDVWGQGTTVTVSS
VL: DIQMTQSPSSLSASVGDRITITCRASQGIRNDLDWYQQKPGKAPKRLIYAASSLQSGVPSRFSGSGSGTEFTLTISSLQPEDFATYYCLQHNSYPPYTFGQGTKLEIK
B2: AB-3545 (antibody, V domains shown)
VH: QVQLQESGPGLVKPSETLSLTCAVSGGSISNYHWNWIRQPPGKGLEWIGYIYYSGRTNYNPTLKSRVNISVDTSKNQFSLKLSSVTAADTAVYYCAREMRRGYSGYDDWDLYAFDIWGQGTMVTVSS
VL: DIQLTQSPSFLSTYVGDRVTITCRASQGISTYLAWYQQKPGKAPKLLIYAAFTLQSGVPSRFSGSGSGTEFTLTISSLQPEDFATYYCQQLNSYPHTFGQGTKLEIK
B3: 3517 (antibody, V domains shown)
VH: B2 VH with A23T, N31S, R56S, T62S, N68S, D108Y
VL: B2 VL with T13A, Y14S, G16R, G28D, T31S, F52S, S93N
B4: 3881 (antibody, V domains shown)
VH: QVQLQGSGPGLVKPSETLSLTCTVSGGSISSYYWTWIRQPPGKGLEWIGYIYYSGITTYNPSLKSRITISVDTSKNQFSLKLRSVTAADTAVYYCAREMRRGYSGYDYWDLYPFDIWGQGTMVTVSS
VL: B2 VL with T13A, Y14S, T31S, A50S, F52S, R61K
B5: AB-3571 (antibody, V domains shown)
VH: B2 VH with N31S, D108Y
VL: B2 VL with Y14S, G28D, F52S, A84V
B6: AB-3492 (antibody, V domains shown)
VH: B2 VH with N31S, H33Y, T62S, N68T
VL: B2 VL with Y14S, T31S, F52S
B7: 3513 (antibody, V domains shown)
VH: QVQLQESGPGLVKPSETLSLTCTVTGGSINNYFWSWIRQPPGKGLEWIGNIYYSGNTIYNPSLKSRVTLSIDTSKNQFSLRLTSVTAADTAVYYCAREMRRGYSGYDYWDLYAFDVWGQGTMVTVSS
VL: B2 VL with T13A, Y14S, G16Q, G28D, T31S, F52S
B8: AB-4873, expressed as human IgG1 (antibody, V domains shown)
VH: QVQLVQSGAEVKKPGASVKVSCKASGYTFTSYYMHWVRQAPGQGLEWMGIINPSAGTTNYAQKFQGRVTMTRDTSTSTVYMELSSLRPEDTAVYYCARENYYGWGSYPFDYWGQGTLVTVSS
VL: B2 VL with I2V, T13A, Y14S, T31S, F52S, S65T, H96Y
B9: AB-3467, expressed as human IgG1 (antibody, V domains shown)
VH: B2 VH with A23T, N31S, R56N, T62S, N68S, V71T, A96V, D108Y
VL: B2 VL with T13A, Y14S, T31S, K45N, F52S
B10: 3476 (antibody, V domains shown)
VH: B2 VH with N31S, H33Y, N35S, T62S, N68T
VL: B2 VL with Y14S, V15I, T31S, K45N, F52S
B11: 3645 (antibody, V domains shown)
VH: B2 VH with N31S, H33Y, N35S, T57I, T62S, N68T
VL: B2 VL with Y14S, T31S, F52S
B12: 3521 (antibody, V domains shown)
VH: B2 VH with A23T, N31S, N35S, R56S, N58I, T62S, N68S, K75Q, R100P, D108Y
VL: B2 VL with T13A, Y14S, G16R, T31S, F52S, S93N
B13: 3581 (antibody, V domains shown)
VH: B7 VH with T25S, N30S, N31T, F33Y, I37T, N56S, L69I, I71V, R81K, V116I
VL: B2 VL with Q6P, T13A, Y14S, T31S, K39T, F52S
B14: 3490 (antibody, V domains shown)
VH: B2 VH with N31S, H33Y, N35S, T62S, N68T
VL: DIQLTQSPSFLSTSVGDRVTITCRASQGISSYLAWYQQKPGKAPKLLIYAASTLQSGVPSRFSGSGSGTEFTLTISSLQPEDFATYYCQQFNSYPHTFGQGTKLEI
B15: 3577 (antibody, V domains shown)
VH: B2 VH with A23T, N31S, R56N, T62S, N68S, V71A, D108Y
VL: B2 VL with T13A, Y14S, T31S, A50T, F52S
B16: 3573 (antibody, V domains shown)
VH: B2 VH with Q3L, N31S, H33Y, N35S, P61S, T62S, N68T
VL: B2 VL with Y14S, T31S, F52S, E70D
B17: 3606 (antibody, V domains shown)
VH: B2 VH with N31S, H33Y, N35S, P61S, T62S, N68T
VL: B2 VL with Y14S, T31S, F52S, E70D
B18: 3636 (antibody, V domains shown)
VH: B2 VH with A23T, N31S, R56S, T62S, N68S, D108Y
VL: B2 VL with T13A, Y14S, G16R, T31S, F52S, S93N
B19: 3475 (antibody, V domains shown)
VH: B2 VH with A23T, G27D, N31S, R56S, T62S, N68T, D72H, K81R, R97K, D108Y
VL: B2 VL with T13A, Y14S, I21V, T31S, F52S
B20: AB-3623, expressed as human IgG1 (antibody, V domains shown)
VH: B2 VH with N31S, H33Y, K43T, T62S, N68T
VL: B2 VL with Y14S, V15I, T31S, K45N, F52S
B21: AB-4689, expressed as human IgG1 (antibody, V domains shown)
VH: QVQLVQSGAEVKKPGASVKVSCKASGYTFSSYGISWVRQAPGQGLEWMGWISAYNGNTYYAQKLQGRVTMTTDTSTSTAYMELRSLRSDDTAVYYCAREFGRLIVHFDYWGQGTLVTVSS
VL: EIVLTQSPDFQSVTPKEKVTITCRASQSIGSSLSWYQQKPDQSPKLLIKCASQSISGVPSRFSGSGSGTDFTLTINSLEAEDAAAYYCHQSSSLPYTFGQGTKLEIK
B22: AB-1987, expressed as human IgG1 (antibody, V domains shown)
VH: QVQLVESGGGVVQPGRSLRLSCAASGFTFSSYGMHWVRQAPGKGLEWAAVIWYDGSNKYYADSVKGRFTISRDNSKNTLYLQMNSLRAEDTAVYYCARESSGGFDYWGQGTLVTVSS
VL: NIQMTQSPSAMSASVGDRVTITCRARQGISNFLAWFQQKPGKVPKHLVYAASSLRSGVPSRFSGSGSGTEFTLTISSLQPEDFATYYCLQHNNYPYTFGQGTKLEIK
B23: AB-2126, expressed as human IgG1 (antibody, V domains shown)
VH: B22 VH with M34I, A48V, S100T, S101L, G102D, F104M, Y106V, L112T
VL: B22 VL with F32Y, V48I, R55L, S76R, N93S

Key:
[1] = target: T1, SARS-CoV-2 receptor-binding domain (SARS-CoV-2, UniProt P0DTC2); assay: cell-based or functional assay
[2] = target: T1, SARS-CoV-2 receptor-binding domain
[3] = target: RaTG13 receptor-binding domain (Bat coronavirus RaTG13, UniProt A0ABF7PLN6)
[4] = target: SARS-CoV-1 receptor-binding domain (SARS-CoV (SARS-CoV-1), isolate not …, UniProt P59594)
[5] = target: T1, SARS-CoV-2 receptor-binding domain; assay: BLI

Binder	neutralization of live CoV2 virus, Vero E6 cells (blocks RBD-ACE2) [1] [µg/mL]	binding result [2]	binding result [3]	binding result [4]	Kd [5] [nM]
B1	0.37				
B2		binds	binds	binds	
B3		binds	binds	binds	
B4		binds	binds	binds	
B5		binds	binds	binds	
B6		binds	binds	binds	
B7		binds	binds	binds	
B8					4.1
B9	0.179				4.1
B10		binds	binds	binds	
B11		binds	binds	binds	
B12		binds	binds	binds	
B13		binds	binds	binds	
B14		binds	binds	binds	
B15		binds	binds	binds	
B16		binds	binds	binds	
B17		binds	binds	binds	
B18		binds	binds	binds	
B19		binds	binds	binds	
B20					2.3
B21					0.24
B22	0.054				
B23	0.106				
